Measurements reported in article PMC4296922 (ACS Applied Materials & Interfaces, 2014).
Where two headings read alike, the source gives them in different places.

Tests used:
[1] = target: T1, aerolysin pore (activated aerolysin in a planar lipid bilayer) (UniProt P09167 24-445); experiment: single-channel nanopore current recording
[2] = target: T1, aerolysin pore (activated aerolysin in …); experiment: single-channel nanopore current recording; remark: listed apart in the source

T1 sequence (P09167 24-445): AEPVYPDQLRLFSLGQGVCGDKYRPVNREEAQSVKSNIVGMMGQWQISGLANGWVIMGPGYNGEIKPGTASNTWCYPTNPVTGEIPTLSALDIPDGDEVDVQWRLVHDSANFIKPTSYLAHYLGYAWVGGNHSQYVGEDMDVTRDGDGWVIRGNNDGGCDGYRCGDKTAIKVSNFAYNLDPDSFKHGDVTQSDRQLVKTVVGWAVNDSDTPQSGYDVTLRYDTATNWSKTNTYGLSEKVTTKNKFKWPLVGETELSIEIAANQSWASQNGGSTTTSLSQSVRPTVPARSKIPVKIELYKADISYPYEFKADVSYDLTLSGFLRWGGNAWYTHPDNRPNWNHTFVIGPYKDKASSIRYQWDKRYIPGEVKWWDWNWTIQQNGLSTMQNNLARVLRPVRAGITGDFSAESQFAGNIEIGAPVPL

QFETSAAKLKRKYWWKNL [synthetic peptide Sb2(76-93)s]
kon [1]: 8.7e+06 M⁻¹ s⁻¹
kon [2]: 8.1e+07 M⁻¹ s⁻¹
